Measurements from US20170121390A1.

Target: HCV E1-E2 protein complex of hepatitis C virus isolate H77 (genotype 1a), expressed from plasmid pcDNA3.1-E1E2 (hepatitis C virus isolate H77 (genotype 1a)) (UniProt P27958)
Assay: cell-based or functional assay

fully human monoclonal antibody Adalimumab (brand name Humira)
Degree of inhibition (times): 1.09 times | Infection effectiveness (percentage of fluorescent cells): 58.1%
